Results taken from the RNAGym collection of RNA variant scans (doi:10.1073/pnas.2313332121).

B1: TPR t1 (parent)
chain: GACCAAUCUGCCCUCAGAGCUCGAGAACAUCUUCGGAUGCAGAGGAGGCAGGCUUCGGUGGCGCGAUAGCGCCAACGUCCUCAACCUCCAAUGCAUCCCACCACAUGAUGAUGCCUGAAGAGCCUUGGUUUUUUG

Variants of: B1
Experiment: polymerase ribozyme fitness, log enrichment relative to wild type (log ratio); higher = more active; in vitro selection for triplet polymerase activity
Procedure, shortened: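 Mutant libraries for each subunit of a heterodimeric triplet polymerase ribozyme were made by PCR and then transcribed. Each library underwent one round of in vitro selection in triplicate: annealing with a biotinylated primer, the partner subunit and triplets, frozen incubation at −7 °C, gel excision of extended constructs, streptavidin-bead capture and RT-PCR. Input and output libraries were Illumina-sequenced, and only genotypes with ≥10 input reads and ≥1 read per output were kept. Fitness is the logarithm, base 2, of genotype enrichment over wild-type enrichment, computed from inverse-variance-weighted replicate averages.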

| Variant | polymerase ribozyme fitness (log ratio) |
| --- | --- |
| U21A G44A | -1.07 |
| C20G U125G | -4.91 |
| C22G A29C G61U G63C C97A C124A | -6.38 |
| C20U C56A G71U A118U G120U | -2.27 |
| U21A G128C | -2.29 |
| U21C A27U C123U | -4.79 |
| U21G C88G U96A C102U | -5.77 |
| U21A U33G G42C A43U G63U G117A | -6.65 |
| G23A G77C G120C | -6.71 |
| U21A G63A C88A A91C | -5.41 |
| C22G G44U G48U G63U A91C A111U | -6.95 |
| C20U C40G G63C | -4.09 |
| U21A A43U G61A C73U A90G | -3.13 |
| G23C A27C C53U U54C C62A C88G C99U C124U U130A U131G | -7.2 |
| U21C U38A C73A C123A | -1.55 |
| A24G C40G G52U | -4.31 |
| C22G G63C | -4.13 |
| G23C U59C C98U C101A U112C | -7.02 |
| U21C G110U G113U | -4.79 |
| U21C G69U C88U C94G C124U | -1.5 |
| C20U G39A C56A G69U C94G | -1.55 |
| C20U U132C | -1.93 |
| C22G A29C C40A G120C | -5.67 |
| U21C C56A C70U C82A | -2.18 |

| Variant | polymerase ribozyme fitness (log ratio) |
| --- | --- |
| C22U G63C U78G U112A | -4.23 |
| C20U U33G U59A G107U G110C | -6.84 |
| C20U G61C C114U | -1.73 |
| C22G C34A G52C | -4.14 |
| C20U U96A | -2.25 |
| C20U G52C | -2.19 |
| U21A G61A U96C | -0.247 |
| C20U G60A C124U | 0.188 |
| C22A C72A C73A | -5.32 |
| U21A A50U C73U C76G C89A | -4.66 |
| U21C G63A | -0.609 |
| U21G C123G | 0.364 |
| C22A C86G C114U | -5.23 |
| C22A A74U C123A U125G | -5.38 |
| U21A C89U | -0.222 |
| C22G C94G | -4.33 |
| C20U G63U | -2.43 |
| C22U A37C | -4.23 |
| C20U G57A U78C | -3.25 |
| U21A C28G G57A U59G C124U U130A | -3.45 |
| C22G G47C C104A | -4.76 |
| C22U A46C C70U | -6.66 |
| G23U C72G | -6.36 |
| C22A C53U G113U | -4.93 |

| Variant | polymerase ribozyme fitness (log ratio) |
| --- | --- |
| C20U U38G C62G G120C | -4.8 |
| U21A C88A G110A | -4.92 |
| C22G A26C G42C A84U | -6.04 |
| C22G U106C C123G U133G | -2.48 |
| C22G C70U | -3.87 |
| C22A G60C | -5.44 |
| U21A G45U C101U U106C | -4.17 |
| C20U C114U | -1.66 |
| C22G G77C C88G C123U | -3.61 |
| G23A G61A U87C | -6.59 |
| C22U A41C G60A C99U G110A U129G | -6.8 |
| C22G C72A C88U | -2.7 |
| C22G C64U C115U A121U | -2.57 |
| U21C G45C C56U G69A U109A A111U C124G | -8.04 |
| C22U C70U G117C | -6.77 |
| C22U A37U A100C | -5.02 |
| C20U C72U C98A | -5.82 |
| C22U A43G G61U C115A | -5.75 |
| C22A C49U C56A U78C G117U | -5.8 |
| U21A G42A A46U G60A G120A | -2.58 |
| C22G A46C C62G A74U | -6.42 |
| C20U A100U G120U | -1.89 |
| A24C G39C C114U G120C | -5.54 |
| C22G A26C G39U A50G C72U U112C | -4.01 |

| Variant | polymerase ribozyme fitness (log ratio) |
| --- | --- |
| C22A G45A C53G C88G A111U | -3.89 |
| C22G C86U C123A | -3.08 |
| C22U G71U | -4.03 |
| C20U C53U U54A U125G | -2.55 |
| C20U C72A A119U | -1.58 |
| G23A G48U | -5.02 |
| C20U A50G | -1.33 |
| G23C G45C G51U G71C G120C | -6.31 |
| C20U C70U A95G | -1.86 |
| U21C C56U A84C C98A | -4.77 |
| U21C U112A G122C C123U | -0.556 |
| U21A C62U A119U | -0.733 |
| G23A G120A | -4.02 |
| G23A G120C | -2.89 |
| C22U A41G C72U C124U | -3.44 |
| C20U U55G | -1.39 |
| U21G C22U U92G C104A U109A | -5.96 |
| U21C C28A G63A U92G C124A G127A | -7.31 |
| C22G G39C A50G G51A C115U | -5.65 |
| C22G C76G | -3.73 |
| C22A G60C A90G C123U | -5.34 |
| C20U A41C C72A C101G | -3.66 |
| U21A U92C U116C A119G | 0.265 |
| G23A A50U G61U G71C A100C A105C U116C U125A G128U | -5.77 |

| Variant | polymerase ribozyme fitness (log ratio) |
| --- | --- |
| U21A A29G | -1.38 |
| C20U G57A G58C | -2.72 |
| U21C A37U | 0.0886 |
| A24G A46U C72G G93C G120U C124U | -5.77 |
| G23C C56A U59G G113A | -6.74 |
| C22A A46C | -5.4 |
| U21A C62U | -0.421 |
| C20U U112G | -1.11 |
| G23U A29G C70A A83U C85A C115U | -7.23 |
| C22G C73A | -3.17 |
| C20U A46C G69C C101U | -4.11 |
| U21C C89A | -1.81 |
| U21A C72A | -0.312 |
| C20U G42C | -2.14 |
| C22U A43C C123G | -4.32 |
| G23U A37G C94G | -6.35 |
| C20U A105U | -3.87 |
| G23A G77U | -6.47 |
| C20U U54A C73G U133A | -1.99 |
| C22U A41U C73U C82G A83U C124U | -4.15 |
| C22U C72G C82A | -5 |
| U21A A37C A46U G77A C89U U131C | -5.66 |
| U21A A27G G51U U116C | -7.29 |
| G23U A121C | -3.5 |

| Variant | polymerase ribozyme fitness (log ratio) |
| --- | --- |
| C20U U106C | -2.1 |
| C22U U87A | -3.71 |
| U21C G61A C114U U125A | -1.45 |
| C20U A43U C114G C123A | -2.41 |
| C22A G57C G69U C76A | -5.3 |
| U21G U38C | -2.11 |
| U21G A119G | -0.142 |
| C20U C73A U81A U96A A121U C124U U134A G135U | -0.843 |
| C22G U78C | -3.01 |
| C22G U78G | -4.47 |
| C22A G69U | -3.88 |
| C22G G63A C114U | -3.48 |
| C22U C72A | -3.91 |
| U21C A111C | 0.739 |
| C22G G51A G61U U112G | -5.05 |
| G23U G42A A46U G69U U109A C123U | -5.99 |
| U21G C64U C72U C73G | -3.77 |
| U21C U55C G63U A105U | -4.84 |
| C22G C72U C114A | -3.16 |
| U21A C56G U78A C85A U109G | -4.63 |
| C22G C73G U133G | -4.48 |
| U21A C49A C56A A121U | 0.0625 |
| C22G G47A G120U G127U | -3.88 |
| C20U A83G C102A | -5.64 |

| Variant | polymerase ribozyme fitness (log ratio) |
| --- | --- |
| U21A A43C C73G U78C | -3.93 |
| G23C G120C | -5.28 |
| C22A C82A C89A A111G | -6.04 |
| C22U C82U | -4.56 |
| C20U A43G G63A | -4.59 |
| C22G U92G | -5.35 |
| U21G G93U A111G U112G | -2.45 |
| C22G A41U G63U U78C C99G | -6.66 |
| C22U G63C G120U | -4.89 |
| A24C G65A C85A C101G G113C | -6.86 |
| C20U A41C U116C | -4.23 |
| C20U C40A G44C C49G G71A C115A A119G | -4.83 |
| U21A A43U C73U A90G | -2.19 |
| U21A C49A G63U | -2.05 |
| C22U G117A | -4.58 |
| C22U C62A U106G A108C A121G G122U | -7.34 |
| C22U U54G | -3.24 |
| C22U A24U G57U C82U C115A | -6.34 |
| C22G C72U U96C C114G C123U G127U | -7.69 |
| C20U G60A G61A C99U | -5.32 |
| C22A G45A G63C C88U | -5.31 |
| C22G A43U U106A C115A | -1.37 |
| A24C G61U | -6.19 |
